Assay [1] addresses T1, soluble EGFR (human epithelial cell growth factor receptor 1, Her1) (human, UniProt P00533 25-645). The assay can be described thus: SPR.
Assay [2] concerns the target T1, soluble EGFR (human epithelial cell …). The assay can be described thus: ITC.
For assay [3] the target is unchanged. Description: SPR. The source holds these as a separate data set.

B1: h528 Fv comprising mutant VL LRL (other)
VH: QVQLVQSGAEVKKPGASVKVSCKASGYTFTSYWMHWVRQAPGQGLEWMGNIYPGSGGTNYAEKFKNRVTMTRDTSISTAYMELSRLRSDDTAVYYCARSGGPYFFDYWGQGTLVTVSS
VL: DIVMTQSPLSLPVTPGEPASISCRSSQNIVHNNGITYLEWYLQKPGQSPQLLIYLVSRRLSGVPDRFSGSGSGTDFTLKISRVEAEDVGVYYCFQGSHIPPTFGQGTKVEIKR
As to B1, the Ka came out at 3.5e+08 M⁻¹ in assay [1] and 4.1e+09 M⁻¹ in assay [2]. This molecule showed a koff in assay [3] of 0.00085 s⁻¹.

B2: h528 Fv comprising mutant VL LRS (other)
VH: QVQLVQSGAEVKKPGASVKVSCKASGYTFTSYWMHWVRQAPGQGLEWMGNIYPGSGGTNYAEKFKNRVTMTRDTSISTAYMELSRLRSDDTAVYYCARSGGPYFFDYWGQGTLVTVSS
VL: DIVMTQSPLSLPVTPGEPASISCRSSQNIVHNNGITYLEWYLQKPGQSPQLLIYLVSRRSSGVPDRFSGSGSGTDFTLKISRVEAEDVGVYYCFQGSHIPPTFGQGTKVEIKR
As for B2, the Ka was found to be 6.8e+08 M⁻¹ in assay [1] and 1.05e+09 M⁻¹ in assay [2]. The same molecule came in with a koff in assay [3] of 0.00078 s⁻¹.

B3: h528Fv WT (other)
VH: QVQLVQSGAEVKKPGASVKVSCKASGYTFTSYWMHWVRQAPGQGLEWMGNIYPGSGGTNYAEKFKNRVTMTRDTSISTAYMELSRLRSDDTAVYYCARSGGPYFFDYWGQGTLVTVSS
VL: DIVMTQSPLSLPVTPGEPASISCRSSQNIVHNNGITYLEWYLQKPGQSPQLLIYKVSDRFSGVPDRFSGSGSGTDFTLKISRVEAEDVGVYYCFQGSHIPPTFGQGTKVEIKR
B3: the values for the Ka in assay [1] and in assay [2] were 4e+07 M⁻¹ and 2.1e+07 M⁻¹, respectively. Moreover, in assay [3], the koff was determined as 0.006 s⁻¹.

The record behind these values is patent US20130131320A1 (published 2013).
